Measured values from patent US20250333523A1 (Alector, published 2025).

T1: Avi/HisMsIL18BPd (recombinant mouse IL-18BP with Avi and poly-His tags) (mouse, biotinylated with BirA on the Avi tag in some assays)
T1 chain: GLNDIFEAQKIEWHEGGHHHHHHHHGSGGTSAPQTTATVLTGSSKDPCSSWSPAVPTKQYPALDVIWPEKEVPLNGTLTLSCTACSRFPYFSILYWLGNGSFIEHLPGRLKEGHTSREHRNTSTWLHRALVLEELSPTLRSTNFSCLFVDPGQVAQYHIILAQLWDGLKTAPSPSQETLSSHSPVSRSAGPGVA

T2: Avi/His-HuIL18BPa (recombinant human IL-18BP isoform A with Avi and poly-His tags) (human, biotinylated with BirA on the Avi tag in some assays)
T2 chain: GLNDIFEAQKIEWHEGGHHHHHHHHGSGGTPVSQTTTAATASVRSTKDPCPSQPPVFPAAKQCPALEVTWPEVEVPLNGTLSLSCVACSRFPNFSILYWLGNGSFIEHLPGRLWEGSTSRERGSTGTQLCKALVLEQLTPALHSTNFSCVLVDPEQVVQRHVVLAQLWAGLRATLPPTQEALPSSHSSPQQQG

T3: His/Avi-CynoIL18BP (recombinant cynomolgus IL-18BP with His and Avi tags) (cynomolgus monkey)
T3 construct: also called cynomolgus IL-18BP-Avi-His
T3 chain: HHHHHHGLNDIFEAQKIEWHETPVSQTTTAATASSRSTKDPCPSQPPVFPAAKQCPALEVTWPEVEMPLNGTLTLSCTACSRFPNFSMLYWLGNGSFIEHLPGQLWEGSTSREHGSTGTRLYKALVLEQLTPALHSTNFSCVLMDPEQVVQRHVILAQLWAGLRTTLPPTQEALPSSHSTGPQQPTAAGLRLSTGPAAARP


Legend:
[1] = biological target: T1, Avi/HisMsIL18BPd (recombinant mouse …); experiment: cell-based or functional assay
[2] = biological target: T2, Avi/His-HuIL18BPa (recombinant human …); experiment: cell-based or functional assay
[3] = biological target: T2, Avi/His-HuIL18BPa (recombinant human …); experiment: SPR Biacore T200, IgG captured on Protein A/G
[4] = biological target: T3, His/Avi-CynoIL18BP (recombinant …); experiment: SPR Biacore T200, IgG captured on Protein A/G

Binder	EC50 of IFNγ release, mouse splenocytes [1] [nM]	EC50 of IFNγ release, human PBMCs [2] [nM]	further results
anti-IL-18BP antibody variant BP-04.04 (antibody, V domains shown) VH: QVQLVQSGAEVKKPGASVKVSCKASGYTFTDYDMHWVRQAPGQGLEWMGIISTYYGDVSYAQKKQGRVTMTRDKSTSTVYMELSSLRSEDTAVYYCARSGTYNYGTRESHPLDYWGQGTLVTVSS VL: DIQMTQSPSSVSASVGDRVTITCRASDNVYSNLAWYQQKPGKAPKLLIYGAISLADGVPSRFSGSGSGTDFTLTISSLQPEDFATYYCQHFWGNPYTFGQGTKLEIK	31.8	18.6	–
anti-IL-18BP antibody variant BP-04.06 (antibody, V domains shown) VH: QVQLVQSGAEVKKPGASVKVSCKASGYTFTDYDMHWVRQAPGQGLEWMGIISTYYGVVSYAQKKQGRVTMTRDKSTSTVYMELSSLRSEDTAVYYCARSGTYYYGTRESHPLDYWGQGTLVTVSS VL: DIQMTQSPSSVSASVGDRVTITCRASDNVYSNLAWYQQKPGKAPKLLIYGAISLADGVPSRFSGSGSGTDFTLTISSLQPEDFATYYCQHFWGNPYTFGQGTKLEIK	67.6	1.32	–
anti-IL-18BP antibody variant BP-04.11 (antibody, V domains shown) VH: QVQLVQSGAEVKKPGASVKVSCKASGYTFTDYDMHWVRQAPGQGLEWMGIYSTYYGVVSYAQKFQGRVTMTRDKSTSTVYMELSSLRSEDTAVYYCARSGTYNYGTRESHALDYWGQGTLVTVSS VL: DIQMTQSPSSVSASVGDRVTITCRASDNVYSNLAWYQQKPGKAPKLLIYGAISLADGVPSRFSGSGSGTDFTLTISSLQPEDFATYYCQHFWGNPYTFGQGTKLEIK	3.61	3.94	–
anti-IL-18BP antibody variant BP-04.16 (antibody, V domains shown) VH: QVQLVQSGAEVKKPGASVKVSCKASGYTFTDYDMHWVRQAPGQGLEWMGIISTYYGDVSYAQKKQGRVTMTRDKSTSTVYMELSSLRSEDTAVYYCARSGTYYYGTRESHAFDYWGQGTLVTVSS VL: DIQMTQSPSSVSASVGDRVTITCRASDNVYSNLAWYQQKPGKAPKLLIYGAISLADGVPSRFSGSGSGTDFTLTISSLQPEDFATYYCQHFWGNPYTFGQGTKLEIK	220	3.34	–
anti-IL-18BP antibody variant BP-04.17 (antibody, V domains shown) VH: QVQLVQSGAEVKKPGASVKVSCKASGYTFTDYDMHWVRQAPGQGLEWMGIISTYYGDVSYAQKKQGRVTMTRDKSTSTVYMELSSLRSEDTAVYYCARSGTYYYGTRESHPLDYWGQGTLVTVSS VL: DIQMTQSPSSVSASVGDRVTITCRASDNVYSNLAWYQQKPGKAPKLLIYGAISLADGVPSRFSGSGSGTDFTLTISSLQPEDFATYYCQHFWGNPYTFGQGTKLEIK	14.6	8.89	–
anti-IL-18BP antibody variant BP-04.19 (antibody, V domains shown) VH: QVQLVQSGAEVKKPGASVKVSCKASGYTFTDYDMHWVRQAPGQGLEWMGIISTYYGVVSYAQKFQGRVTMTRDKSTSTVYMELSSLRSEDTAVYYCARSGTYYYGTRESHAFDYWGQGTLVTVSS VL: DIQMTQSPSSVSASVGDRVTITCRASDNVYSNLAWYQQKPGKAPKLLIYGAISLADGVPSRFSGSGSGTDFTLTISSLQPEDFATYYCQHFWGNPYTFGQGTKLEIK	21.6	3.1	–
anti-IL-18BP antibody variant BP-04.31 (antibody, V domains shown) VH: QVQLVQSGAEVKKPGASVKVSCKASGYTFTDYDMHWVRQAPGQGLEWMGIISTYYGVVSYAQKFQGRVTMTRDKSTSTVYMELSSLRSEDTAVYYCARSGTYYYGTRESHALDYWGQGTLVTVSS VL: DIQMTQSPSSVSASVGDRVTITCRASDNVYSNLAWYQQKPGKAPKLLIYGAISLADGVPSRFSGSGSGTDFTLTISSLQPEDFATYYCQHFWGNPYTFGQGTKLEIK	–	6.3	–
anti-IL-18BP antibody variant BP-04.30 (antibody, V domains shown) VH: QVQLVQSGAEVKKPGASVKVSCKASGYTFTDYDMHWVRQAPGQGLEWMGIISTYYGDVSYAQKKQGRVTMTRDKSTSTVYMELSSLRSEDTAVYYCARSGTYYYGTRESHALDYWGQGTLVTVSS VL: DIQMTQSPSSVSASVGDRVTITCRASDNVYSNLAWYQQKPGKAPKLLIYGAISLADGVPSRFSGSGSGTDFTLTISSLQPEDFATYYCQHFWGNPYTFGQGTKLEIK	7.43	–	–
anti-IL-18BP antibody variant BP-04.12 (antibody, V domains shown) VH: QVQLVQSGAEVKKPGASVKVSCKASGYTFTDYDMHWVRQAPGQGLEWMGIYSTYYGVVSYAQKKQGRVTMTRDKSTSTVYMELSSLRSEDTAVYYCARSGTYYYGTRESHALDYWGQGTLVTVSS VL: DIQMTQSPSSVSASVGDRVTITCRASDNVYSNLAWYQQKPGKAPKLLIYGAISLADGVPSRFSGSGSGTDFTLTISSLQPEDFATYYCQHFWGNPYTFGQGTKLEIK	0.865	31.9	–
anti-IL-18BP antibody variant BP-04.13 (antibody, V domains shown) VH: QVQLVQSGAEVKKPGASVKVSCKASGYTFTDYDMHWVRQAPGQGLEWMGIISTYYGDVSYAQKFQGRVTMTRDKSTSTVYMELSSLRSEDTAVYYCARSGTYYYGTRESHPFDYWGQGTLVTVSS VL: DIQMTQSPSSVSASVGDRVTITCRASDNVYSNLAWYQQKPGKAPKLLIYGAISLADGVPSRFSGSGSGTDFTLTISSLQPEDFATYYCQHFWGNPYTFGQGTKLEIK	41.4	16.6	–
anti-IL-18BP antibody variant BP-04.14 (antibody, V domains shown) VH: QVQLVQSGAEVKKPGASVKVSCKASGYTFTDYDMHWVRQAPGQGLEWMGIISTYYGDVSYAQKFQGRVTMTRDKSTSTVYMELSSLRSEDTAVYYCARSGTYNYGTRESHAFDYWGQGTLVTVSS VL: DIQMTQSPSSVSASVGDRVTITCRASDNVYSNLAWYQQKPGKAPKLLIYGAISLADGVPSRFSGSGSGTDFTLTISSLQPEDFATYYCQHFWGNPYTFGQGTKLEIK	21.2	543	–
anti-IL-18BP antibody variant BP-04.20 (antibody, V domains shown) VH: QVQLVQSGAEVKKPGASVKVSCKASGYTFTDYDMHWVRQAPGQGLEWMGIISTYYGVVSYAQKFQGRVTMTRDKSTSTVYMELSSLRSEDTAVYYCARSGTYYYGTRESHPLDYWGQGTLVTVSS VL: DIQMTQSPSSVSASVGDRVTITCRASDNVYSNLAWYQQKPGKAPKLLIYGAISLADGVPSRFSGSGSGTDFTLTISSLQPEDFATYYCQHFWGNPYTFGQGTKLEIK	28.7	4.06	–
anti-IL-18BP antibody variant BP-04.10 (antibody, V domains shown) VH: QVQLVQSGAEVKKPGASVKVSCKASGYTFTDYDMHWVRQAPGQGLEWMGIYSTYYGVVSYAQKFQGRVTMTRDKSTSTVYMELSSLRSEDTAVYYCARSGTYYYGTRESHPLDYWGQGTLVTVSS VL: DIQMTQSPSSVSASVGDRVTITCRASDNVYSNLAWYQQKPGKAPKLLIYGAISLADGVPSRFSGSGSGTDFTLTISSLQPEDFATYYCQHFWGNPYTFGQGTKLEIK	501	10.5	–
anti-IL-18BP antibody variant BP-04.01 (antibody, V domains shown) VH: QVQLVQSGAEVKKPGASVKVSCKASGYTFTDYDMWVRQAPGQGLEWMGIISTYYGDVSYAIKFQGRVTMTRDKSTSTVYMELSSLRSEDTAVYYCARSGTYYYGTRESALDYWGQGTLVTVSS VL: DIQMTQSPSSVSASVGDRVTITCRASDNVYSNLAWYQQKPGKAPKLLIYGAISLADGVPSRFSGSGSGTDFTLTISSLQPEDFATYYCQHFWGNPYTFGQGTKLEIK	1.67	–	–
anti-IL-18BP antibody variant BP-04.18 (antibody, V domains shown) VH: QVQLVQSGAEVKKPGASVKVSCKASGYTFTDYDMHWVRQAPGQGLEWMGIISTYYGDVSYAQKKQGRVTMTRDKSTSTVYMELSSLRSEDTAVYYCARSGTYNYGTRESHALDYWGQGTLVTVSS VL: DIQMTQSPSSVSASVGDRVTITCRASDNVYSNLAWYQQKPGKAPKLLIYGAISLADGVPSRFSGSGSGTDFTLTISSLQPEDFATYYCQHFWGNPYTFGQGTKLEIK	28.4	11.3	–
anti-IL-18BP antibody variant BP-04.24 (antibody, V domains shown) VH: QVQLVQSGAEVKKPGASVKVSCKASGYTFTDYDMHWVRQAPGQGLEWMGIYSTYYGDVSYAQKFQGRVTMTRDKSTSTVYMELSSLRSEDTAVYYCARSGTYYYGTRESHPLDYWGQGTLVTVSS VL: DIQMTQSPSSVSASVGDRVTITCRASDNVYSNLAWYQQKPGKAPKLLIYGAISLADGVPSRFSGSGSGTDFTLTISSLQPEDFATYYCQHFWGNPYTFGQGTKLEIK	–	4.84	Kd [3]: 16 nM; koff [3]: 0.0047 s⁻¹; kon [3]: 290000 M⁻¹ s⁻¹; Kd [4]: 29 nM; koff [4]: 0.0059 s⁻¹; kon [4]: 200000 M⁻¹ s⁻¹
